PMC10993888

How the values were obtained:
[1] = molecular target: SARS-CoV-2 spike S1 subunit (SARS-CoV-2, UniProt P0DTC2 16-685); test: SPR; conditions: protein: commercial
MERS-CoV RBD = MERS-CoV RBD (MERS-CoV, UniProt K9N5Q8 367-606); conditions: protein: commercial; label: 3'-biotin-TEG (SPR)
SARS-CoV-1 RBD = SARS-CoV-1 RBD (SARS-CoV-1, UniProt P59594 306-527); conditions: protein: commercial; label: 3'-biotin-TEG (SPR)

Binder	binding result [1]	Kd (MERS-CoV RBD)	Kd (SARS-CoV-1 RBD)
GGGTGAATCTATGGGGTGGGCAGGGG (XNA) [SPA1-M12]	binds	–	–
GGGTGAATCTATGGGGTGGGCAGGGG (XNA) [SPA1-M13]	–	4 nM	8.7 nM
